Here are results for 14 molecules from US20210188980A1 (SHANGHAI EPIMAB BIOTHERAPEUTICS, published 2021).

The chains are these.
T1: recombinant human LAG-3-his protein (Novoprotein) (human, UniProt P18627 23-450)
T1 construct: Bought; also called huLAG-3; not shown: His tag
T1 sequence (looked up): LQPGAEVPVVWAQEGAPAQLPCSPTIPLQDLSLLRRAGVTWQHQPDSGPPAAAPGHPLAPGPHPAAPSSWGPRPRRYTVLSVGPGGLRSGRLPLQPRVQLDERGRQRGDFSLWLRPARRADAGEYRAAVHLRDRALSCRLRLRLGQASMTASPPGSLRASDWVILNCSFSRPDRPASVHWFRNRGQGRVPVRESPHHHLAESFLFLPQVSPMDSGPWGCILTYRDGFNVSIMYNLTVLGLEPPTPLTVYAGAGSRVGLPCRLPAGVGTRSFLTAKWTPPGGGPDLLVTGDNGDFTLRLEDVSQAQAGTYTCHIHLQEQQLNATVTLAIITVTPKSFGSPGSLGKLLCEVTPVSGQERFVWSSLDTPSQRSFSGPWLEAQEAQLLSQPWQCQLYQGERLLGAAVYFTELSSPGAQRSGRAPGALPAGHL

B1: HumAb747-48 (antibody, human IgG1, V domains shown)
VH: EVQLVQSGAEVKKPGATVKLSCKASDFNIKDDYMHWVQQAPGKGLEWIGWIVPENGNTEYASKFQGRVTITADTSTDTAYLELSSLRSEDTAVYYCTVYGDYWGQGTTVTVSS
VL: DIQMTQSPSSLSASVGDRVTITCRASQEISGYLSWLQQKPGKAIKRLIYAASTLDSGVPSRFSGSRSGTDFTLTISSLQPEDFATYYCLQYASYPLTFGQGTKLEIK
notes: humanized mAb747; human IgG1/kappa constant domains
B2: HumAb747-54 (antibody, human IgG1, V domains shown)
VH: EVQLVQSGAEVKKPGATVKLSCTASDFNIKDDYMHWVKQAPGKGLEWIGWIVPENGNTEYASKFQGRATITADTSTNTAYLELSSLRSEDTAVYYCTVYGDYWGQGTTVTVSS
VL: DIQMTQSPSSLSASVGDRVTITCRASQEISGYLSWLQQKPGGAIKRLIYAASTLDSGVPSRFSGSRSGSDYTLTISSLQPEDFADYYCLQYASYPLTFGQGTKLELK
notes: as for B1
B3: HumAb747-52 (antibody, human IgG1, V domains shown)
VH: EVQLVQSGAEVKKPGATVKLSCKASDFNIKDDYMHWVQQAPGKGLEWIGWIVPENGNTEYASKFQGRVTITADTSTDTAYLELSSLRSEDTAVYYCTVYGDYWGQGTTVTVSS
VL: DIQMTQSPSSLSASVGDRVTITCRASQEISGYLSWLQQKPGGAIKRLIYAASTLDSGVPSRFSGSRSGSDYTLTISSLQPEDFADYYCLQYASYPLTFGQGTKLELK
notes: as for B1
B4: HumAb747-51 (antibody, human IgG1, V domains shown)
VH: EVQLVQSGAEVKKPGATVKISCKVSDFNIKDDYMHWVQQAPGKGLEWIGWIVPENGNTEYASKFQGRVTITADTSTDTAYLELSSLRSEDTAVYYCTVYGDYWGQGTTVTVSS
VL: DIQMTQSPSSLSASVGDRVTITCRASQEISGYLSWLQQKPGGAIKRLIYAASTLDSGVPSRFSGSRSGSDYTLTISSLQPEDFADYYCLQYASYPLTFGQGTKLELK
notes: as for B1
B5: HumAb747-49 (antibody, human IgG1, V domains shown)
VH: EVQLVQSGAEVKKPGATVKLSCTASDFNIKDDYMHWVQQAPGKGLEWIGWIVPENGNTEYASKFQGRVTITADTSTDTAYLELSSLRSEDTAVYYCTVYGDYWGQGTTVTVSS
VL: DIQMTQSPSSLSASVGDRVTITCRASQEISGYLSWLQQKPGKAIKRLIYAASTLDSGVPSRFSGSRSGTDFTLTISSLQPEDFATYYCLQYASYPLTFGQGTKLEIK
notes: as for B1
B6: HumAb747-50 (antibody, human IgG1, V domains shown)
VH: EVQLVQSGAEVKKPGATVKLSCTASDFNIKDDYMHWVKQAPGKGLEWIGWIVPENGNTEYASKFQGRATITADTSTNTAYLELSSLRSEDTAVYYCTVYGDYWGQGTTVTVSS
VL: DIQMTQSPSSLSASVGDRVTITCRASQEISGYLSWLQQKPGKAIKRLIYAASTLDSGVPSRFSGSRSGTDFTLTISSLQPEDFATYYCLQYASYPLTFGQGTKLEIK
notes: as for B1
B7: HumAb747-53 (antibody, human IgG1, V domains shown)
VH: EVQLVQSGAEVKKPGATVKLSCTASDFNIKDDYMHWVQQAPGKGLEWIGWIVPENGNTEYASKFQGRVTITADTSTDTAYLELSSLRSEDTAVYYCTVYGDYWGQGTTVTVSS
VL: DIQMTQSPSSLSASVGDRVTITCRASQEISGYLSWLQQKPGGAIKRLIYAASTLDSGVPSRFSGSRSGSDYTLTISSLQPEDFADYYCLQYASYPLTFGQGTKLELK
notes: as for B1
B8: B3-48-IgG (antibody, V domains shown)
VH: EVQLVQSGAEVKKPGASVKVSCKASDFSIKDDYMHWVRQAPGQGLEWIGWIVPENGKTEYASKFQGRVTITADTSINTAYMELSRLRSDDTAVYYCTVYGDYWGQGTTVTVSS
VL: DIQMTQSPSSLSASVGDRVTINCRASQEISGYLSWLQQKPEGTIKRLIYAAMTLDSGVPSRFSGSRSGSDYTLTISSLQPEDFATYYCLQYASYPLTFGGGTKVEIK
notes: human IgG1/kappa constant domains
B9: B3-43-IgG (antibody, V domains shown)
VH: EVQLVQSGAEVKKPGASVKVSCKASGFNIKDDYMHWVCQAPGQGLEWIGWIVPENGNTEYASKFQGRVTITADTSINTAYMELSRLRSDDTAVYYCTVYGDYWGQGTTVTVSS
VL: DIQMTQSPSSLSASVGDRVTINCRASQEISGYLSWLQQKPEGTIKRLIYAASHLDSGVPSRFSGSRSGSDYTLTISSLQPEDFATYYCLQYASYPLTFGGGTKVEIK
notes: as for B8
B10: B2-53-IgG (antibody, V domains shown)
VH: EVQLVQSGAEVKKPGASVKVSCKASGFNIKDDYMHWVRQAPGQGLEWIGWIVPENGNTVYASKFQGRVTITADTSINTAYMELSRLRSDDTAVYYCTVYGDYWGQGTTVTVSS
VL: DIQMTQSPSSLSASVGDRVTINCRASQEISGYLSWLQQKPEGTIKRLIYAASALDSGVPSRFSGSRSGSDYTLTISSLQPEDFATYYCLQYASYPLTFGGGTKVEIK
notes: human IgG1/kappa constant domains; also called B82-53
B11: B3-21-IgG (antibody, V domains shown)
VH: EVQLVQSGAEVKKPGASVKVSCKASDFNIKDDYMHWVRQAPGQGLEWIGWIVPENGNTEYASKFQGRVTITADTSINTAYMELSRLRSDDTAVYYCTVYGDVWGQGTTVTVSS
VL: DIQMTQSPSSLSASVGDRVTINCRAMQEISGYLSWLQQKPEGTIKRLIYAASTLDSGVPSRFSGSRSGSDYTLTISSLQPEDFATYYCLQYAYYPLTFGGGTKVEIK
notes: as for B8
B12: B3-69-IgG (antibody, V domains shown)
VH: EVQLVQSGAEVKKPGASVKVSCKASGFNIKDDYMHWVRQAPGQGLEWIGWIVPENGNTHYASKFQGRVTITADTSINTAYMELSRLRSDDTAVYYCTVYGDYWGQGTTVTVSS
VL: DIQMTQSPSSLSASVGDRVTINCRASQEISGYLSWLQQKPEGTIKRLIYEASTLDSGVPSRFSGSRSGSDYTLTISSLQPEDFATYYCLQYASYPLTFGGGTKVEIK
notes: as for B8
B13: B3-46-IgG (antibody, V domains shown)
VH: EVQLVQSGAEVKKPGASVKVSCKASGFNIKDDYMHWVRQAPGQGLEWIGWIVPENGLTEYASKFQGRVTITADTSINTAYMELSRLRSDDTAVYYCTVYGDYWGQGTTVTVSS
VL: DIQMTQSPSSLSASVGDRVTINCRASQEISGYLSWLQQKPEGTIKRLIYATSTLDSGVPSRFSGSRSGSDYTLTISSLQPEDFATYYCLQYASYPLTFGGGTKVEIK
notes: as for B8
B14: HumAb747V-61 (antibody, human IgG1, V domains shown)
VH: EVQLVQSGAEVKKPGATVKLSCTASDFNIKDDYMHWVKQRPEQGLDWIGWIVPENANTEYASKFQGKATITADTSTNTAYLELSSLRSEDTAVYYCTVYGDYWGQGTTVTVSS
VL: DIQMTQSPSSLSASVGDRVTITCRASQEISGYLSWLQQKPGGAIKRLIYAASTLDSGVPSRFSGSRSGSDYTLTISSLQPEDFADYYCLQYASYPLTFGQGTKLELK
notes: as for B8

The target in one assay is T1, recombinant human LAG-3-his protein …. As to the kind of experiment: BLI Octet, Ab on AHC sensor, huLAG-3-his; test group 1. As for the experimental part: (§1) All 18 humanized antibodies (Table 34) and a chimeric antibody having the parental murine VH and VL domains (mAb747c) were ranked by dissociation rate constant (koff). Briefly, antibodies were characterized for affinities and binding kinetics by Octet®RED96 biolayer interferometry (Pall ForteBio LLC). Antibodies were captured by Anti-hIgG Fc Capture (AHC) Biosensors (Pall) at a concentration of 100 nM for 30 seconds. Sensors were then dipped into running buffer (1× pH7.2 PBS, 0.05% Tween 20, 0.1% BSA) for 60 seconds to check baseline. Binding was measured by dipping sensors into a single concentration of recombinant human LAG-3-his protein (Novoprotein). Dissociation was followed by dipping sensors into running buffer for 1200 seconds. The association and dissociation curves were fitted to a 1:1 Langmuir binding model using FortéBio Data Analysis software (Pall). In each test group, the off-rates of antibodies were able to be compared with that of mAb747c. The off-rate ratios were calculated by the off-rate of antibody to that of mAb747c of its group and were compared all together. The lower the ratio was, the higher was the affinity of the antibody.
With B1, the koff came to 0.00803 s⁻¹ and the “off-rate ratio to that of mAb747c” value turned out to be 592%.

A further assay has the same target. Briefly: BLI Octet, Ab on AHC sensor, huLAG-3-his; test group 2. As for the experimental part:
as §1
As to B2, the koff was 0.00423 s⁻¹ and the “off-rate ratio to that of mAb747c” value amounted to 314%.

Take B3: the koff came to 0.00436 s⁻¹ and the “off-rate ratio to that of mAb747c” value was 324%.

B4: the koff was 0.0119 s⁻¹ and the “off-rate ratio to that of mAb747c” value was 888%.

With B5, the dissociation rate constant (koff) was found to be 0.00773 s⁻¹ and the “off-rate ratio to that of mAb747c” value worked out at 575%.

Consider B6, for which the koff amounted to 0.00719 s⁻¹ and the “off-rate ratio to that of mAb747c” value amounted to 534%.

On to B7, for which the koff amounted to 0.0043 s⁻¹ and the “off-rate ratio to that of mAb747c” value came to 319%.

Another assay shares this target. As to the kind of experiment: BLI Octet, Ab on AHC sensor, huLAG-3-his; test group 1. This is another data set of the same source. How it is done: as §1, with “9” for “18”, “25)” for “34)”, “Octet RED96” for “Octet®RED96”, “FortéBio” for “ForteBio”, “Anti-HIgG” for “Anti-hIgG”, “(Pall).” for “(Pall). In each test group, the off-rates of antibodies were able to be compared with that of mAb747c. The off-rate ratios were calculated by the off-rate of antibody to that of mAb747c of its group and were compared all together. The lower the ratio was, the higher was the affinity of the antibody.”
The seven Fab clones were converted to full IgG proteins. Briefly, the VH and VL genes were produced synthetically and then cloned into vectors containing coding sequences for the human IgG1 and human kappa constant domains, respectively. The heavy chain and cognate light chain plasmids were co-transfected into HEK 293E cells, individually. After approximately six days of post-transfection cell culture, the supernatants were harvested and subjected to Protein A affinity chromatography. The affinity of purified antibodies was ranked by Octet® RED96 biolayer interferometry (see, Example 9.1, supra).
As to B8, the koff is 0.00285 s⁻¹ and the “off-rate ratio to that of mAb747c” value was found to be 190%.

As for B9, the koff was 0.00588 s⁻¹ and the “off-rate ratio to that of mAb747c” value was found to be 392%.

B10: the koff was 0.0018 s⁻¹ and the “off-rate ratio to that of mAb747c” value came out at 120%.

For B11, the koff came out at 0.00198 s⁻¹ and the “off-rate ratio to that of mAb747c” value came out at 132%.

With B12, the koff is 0.00359 s⁻¹ and the “off-rate ratio to that of mAb747c” value is 239%.

As to B13, the koff is 0.00248 s⁻¹ and the “off-rate ratio to that of mAb747c” value was determined as 165%.

Another assay shares this target. The description is as above. The source holds these as a separate data set. As for the experimental part:
as §1, with “9” for “18”, “25)” for “34)”, “Octet RED96” for “Octet®RED96”, “FortéBio” for “ForteBio”, “Anti-HIgG” for “Anti-hIgG”, “(Pall).” for “(Pall). In each test group, the off-rates of antibodies were able to be compared with that of mAb747c. The off-rate ratios were calculated by the off-rate of antibody to that of mAb747c of its group and were compared all together. The lower the ratio was, the higher was the affinity of the antibody.”
All 13 humanized antibodies (Table 39) and chimeric anti-LAG-3 antibody mAb747c having the parental murine VH and VL domains were ranked by dissociation rate constant (koff) in the same manner described in Example 9.1 supra. In each test group, the off-rates of antibodies were able to be compared with that of mAb747c. The off-rate ratios were calculated by the off-rate of antibody to that of mAb747c of its group and were compared all together. The lower the ratio was, the higher was the affinity of the antibody.
As for B14, the koff was 0.000686 s⁻¹ and the “off-rate ratio to that of mAb747c” value is 112%.
